Source: patent US20230091315A1 (CISBIO BIOASSAYS, published 2023)

Experiments:
[1] = molecular target: T1, human Gα13 fused in its N-terminal part with the tags Twin-Strep-tag and FLAG, overexpressed in HEK293 cells (human, UniProt Q14344 1-377); test: HTRF on HEK293 cells overexpressing the TST-Flag-tagged Gα: antibody-d2 (10 nM) + anti-Twin-Strep-tag-Lumi4 Tb, in buffer, GDP 10 µM or GTPγS 10 µM
T1 construct: not shown: N-terminal Twin-Strep-tag and FLAG tags
T1 sequence (looked up): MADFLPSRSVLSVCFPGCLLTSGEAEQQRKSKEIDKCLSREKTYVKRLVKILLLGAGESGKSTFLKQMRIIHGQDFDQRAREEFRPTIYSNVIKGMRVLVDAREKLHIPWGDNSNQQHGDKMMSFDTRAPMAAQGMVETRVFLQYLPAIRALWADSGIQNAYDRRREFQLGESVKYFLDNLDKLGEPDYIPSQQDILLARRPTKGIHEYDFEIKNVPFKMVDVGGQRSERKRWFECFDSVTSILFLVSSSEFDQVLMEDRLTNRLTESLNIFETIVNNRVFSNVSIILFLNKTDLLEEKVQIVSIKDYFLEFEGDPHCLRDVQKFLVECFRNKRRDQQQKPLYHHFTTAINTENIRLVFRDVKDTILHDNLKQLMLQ

[2] = molecular target: T2, human Gα12 fused in its N-terminal part with the tags Twin-Strep-tag and FLAG, overexpressed in HEK293 cells (human, UniProt Q03113 1-381); test: as above
T2 construct: not shown: N-terminal Twin-Strep-tag and FLAG tags
T2 sequence (looked up): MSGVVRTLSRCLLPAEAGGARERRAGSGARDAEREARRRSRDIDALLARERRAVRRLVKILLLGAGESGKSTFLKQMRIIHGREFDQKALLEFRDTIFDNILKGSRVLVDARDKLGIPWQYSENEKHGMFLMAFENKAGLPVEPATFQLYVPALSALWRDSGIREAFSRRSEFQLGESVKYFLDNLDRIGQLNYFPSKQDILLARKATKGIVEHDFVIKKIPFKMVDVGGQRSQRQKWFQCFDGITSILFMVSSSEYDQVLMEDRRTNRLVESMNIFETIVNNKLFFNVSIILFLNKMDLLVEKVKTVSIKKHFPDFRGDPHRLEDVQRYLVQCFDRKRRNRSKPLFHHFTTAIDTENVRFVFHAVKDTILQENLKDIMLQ

[3] = molecular target: T3, human Gαq fused in its N-terminal part with the tags Twin-Strep-tag and FLAG, overexpressed in HEK293 cells (human, UniProt P50148 1-359); test: as above
T3 construct: not shown: N-terminal Twin-Strep-tag and FLAG tags
T3 sequence (looked up): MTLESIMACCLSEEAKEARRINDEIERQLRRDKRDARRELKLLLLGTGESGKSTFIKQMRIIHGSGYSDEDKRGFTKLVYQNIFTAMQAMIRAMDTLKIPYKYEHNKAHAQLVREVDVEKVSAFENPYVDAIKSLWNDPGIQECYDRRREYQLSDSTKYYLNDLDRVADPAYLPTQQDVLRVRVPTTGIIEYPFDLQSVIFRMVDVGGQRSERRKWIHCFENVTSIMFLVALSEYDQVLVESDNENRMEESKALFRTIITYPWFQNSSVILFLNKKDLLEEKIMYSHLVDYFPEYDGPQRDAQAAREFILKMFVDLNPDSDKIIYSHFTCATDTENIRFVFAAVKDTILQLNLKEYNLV

[4] = molecular target: T4, human Gαz fused in its N-terminal part with the tags Twin-Strep-tag and FLAG, overexpressed in HEK293 cells (human, UniProt P19086 1-355); test: HTRF on HEK293 cells overexpressing the TST-Flag-tagged Gα: antibody-d2 (10 nM) + anti-Twin-Strep-tag-Lumi4 Tb (0.5 nM), in buffer, GDP 10 µM or GTPγS 10 µM
T4 construct: not shown: N-terminal Twin-Strep-tag and FLAG tags
T4 sequence (P19086 whole entry, the tested form may be a part): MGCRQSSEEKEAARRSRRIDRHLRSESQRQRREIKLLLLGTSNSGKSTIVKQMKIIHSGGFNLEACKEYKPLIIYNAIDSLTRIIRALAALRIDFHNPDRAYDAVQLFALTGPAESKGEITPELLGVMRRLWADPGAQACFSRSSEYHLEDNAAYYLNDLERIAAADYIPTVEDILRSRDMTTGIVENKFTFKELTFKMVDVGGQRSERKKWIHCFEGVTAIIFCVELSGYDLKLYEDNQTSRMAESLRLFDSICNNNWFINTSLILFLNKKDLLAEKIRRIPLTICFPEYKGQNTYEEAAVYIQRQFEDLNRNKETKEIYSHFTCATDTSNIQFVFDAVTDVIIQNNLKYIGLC

[5] = molecular target: T5, human Gαi3 fused in its N-terminal part with the tags Twin-Strep-tag and FLAG, overexpressed in HEK293 cells (human, UniProt P08754 1-354); test: as above
T5 construct: not shown: N-terminal Twin-Strep-tag and FLAG tags
T5 sequence (P08754 whole entry, the tested form may be a part): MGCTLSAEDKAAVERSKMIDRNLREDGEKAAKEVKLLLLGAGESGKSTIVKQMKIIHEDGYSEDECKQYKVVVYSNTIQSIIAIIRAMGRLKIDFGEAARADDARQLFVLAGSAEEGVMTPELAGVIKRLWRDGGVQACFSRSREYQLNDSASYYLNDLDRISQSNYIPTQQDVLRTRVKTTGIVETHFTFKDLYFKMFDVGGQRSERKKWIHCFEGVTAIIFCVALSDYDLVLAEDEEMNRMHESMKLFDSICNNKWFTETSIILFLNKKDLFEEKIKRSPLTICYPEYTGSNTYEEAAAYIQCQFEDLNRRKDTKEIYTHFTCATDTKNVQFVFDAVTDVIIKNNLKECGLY

[6] = molecular target: T6, human Gαi2 fused in its N-terminal part with the tags Twin-Strep-tag and FLAG, overexpressed in HEK293 cells (human, UniProt P04899 1-355); test: as above
T6 construct: not shown: N-terminal Twin-Strep-tag and FLAG tags
T6 sequence (P04899 whole entry, the tested form may be a part): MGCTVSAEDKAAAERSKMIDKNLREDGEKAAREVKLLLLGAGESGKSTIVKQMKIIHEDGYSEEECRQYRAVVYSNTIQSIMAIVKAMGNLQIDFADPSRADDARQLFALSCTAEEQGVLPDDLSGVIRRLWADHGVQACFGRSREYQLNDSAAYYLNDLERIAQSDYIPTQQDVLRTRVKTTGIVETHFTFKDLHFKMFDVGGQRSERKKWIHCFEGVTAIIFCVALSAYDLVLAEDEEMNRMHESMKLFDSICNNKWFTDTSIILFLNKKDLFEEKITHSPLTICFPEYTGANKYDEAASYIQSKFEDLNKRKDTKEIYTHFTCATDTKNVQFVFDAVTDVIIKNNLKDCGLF

B1: antibody DSV36S (antibody, V domains shown)
VH: EVQLQQSGAELVRPGALVKLSCKASGFNIKDYYMHWVKQRPEQGLEWIGWIDPENGNTIYDPKFQGKASITADTSSNTAYLQLSSLTSEDTAVYYCTRGGGYYSDWYFDVWGAGTTVTVSS
VL: QIVLTQSPAIMSASPGEKVTMTCSASSSVSYMHWYQQKSGTSPKRWIYDTSKLASGVPARFSGSGSGTSYSLTISSMEAEDAATYYCQQWSSNPPITFGAGTKLELK
notes: Used unlabeled or labeled with d2 (acceptor) or Lumi4Tb (donor); also called DSV36S-d2; DSV36S-Lumi4Tb
[1]
  binding result: no binding (tested: 10 nM)
[2]
  binding result: no binding (tested: 10 nM)
[3]
  binding result: no binding (tested: 10 nM)
[4]
  binding result: binds
[5]
  binding result: binds
[6]
  binding result: binds
